This series concerns T1, CN(C)c1ccc(N=Nc2ccc(S(=O)(=O)N[C@@H](CC[S@@+](C)[O-])C(=O)O)cc2)cc1.
T1 construct: full-length mouse MsrB2, C-terminal His tag (LEHHHHHH), E. coli BL21(DE3), monomer
Kind of series: HPLC of dabsyl-Met, Lineweaver-Burk. Particulars: 20 mM DTT, 50 mM sodium phosphate pH 7.5, 50 mM NaCl, 37 °C, from E. coli. The format is biochemical, Mus musculus. An excerpt:
HPLC of dabsyl-Met, Lineweaver-Burk on MsrB2

Sequence of MsrB2 (Mus musculus; V149E) (chain, as listed by the source V149E): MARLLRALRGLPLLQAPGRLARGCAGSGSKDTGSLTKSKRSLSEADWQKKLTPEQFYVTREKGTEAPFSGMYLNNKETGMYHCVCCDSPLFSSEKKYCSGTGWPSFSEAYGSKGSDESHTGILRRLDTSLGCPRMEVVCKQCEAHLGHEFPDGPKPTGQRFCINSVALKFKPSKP
Sequence of MsrB2 (Mus musculus; H119G) (chain, as listed by the source H119G): as the sequence (chain, as listed by the source V149E) above, with H119G, E149V counted along it
Sequence of MsrB2 (Mus musculus) (chain, as listed by the source): as the sequence (chain, as listed by the source V149E) above, with E149V counted along it

A word on the Km: it is the concentration of substrate that gives half-maximal velocity. Usually kcat stands for the maximal rate divided by the concentration of active sites. MsrB2 (Mus musculus; H119G): where the note is “MsrB1 numbering”, the Km stood at 340 ± 60 µM and the kcat was determined as 0.0083 ± 0.0017 s⁻¹.
With MsrB2 (Mus musculus; V149E), for the setting “MsrB1 numbering”, the Km came to 140 ± 40 µM and the kcat is 0.0933 ± 0.012 s⁻¹.
In the case of MsrB2 (Mus musculus), the Km was 310 ± 100 µM and the kcat was found to be 0.458 ± 0.0633 s⁻¹.
